Measurements from patent US20240238459.

Assays:
[1] = test system: T1, substrate sequence FVQWFSKFLGK (SEQ ID NO:3)
T1 sequence: FVQWFSKFLGK

^64Cu-GRIP B = test system: T2, ^64Cu-GRIP B
T2 sequence: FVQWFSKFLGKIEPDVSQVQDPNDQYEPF

[2] = test system: T3, granzyme B-cleavable restricted interaction peptide (GRIP B), full length
T3 sequence: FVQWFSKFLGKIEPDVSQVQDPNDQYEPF

[3] = test system: T4, quenched fluorogenic peptide NH2-K(MCA)IEPDVSQVK(DNP)-COOH
T4 sequence: KIEPDVSQVK

Substance	protease specificity (cleavage activity; enzyme 5 nM, substrate 60 µM) [1]	proteolytic conversion on radio-HPLC (^64Cu-GRIP B)	proteolytic cleavage [2]	kcat/Km [3]
MMP9	the substrate sequence is highly specific for granzyme B compared to the other proteases tested	–	–	–
caspase 3	the substrate sequence is highly specific for granzyme B compared to the other proteases tested	–	–	–
caspase 8	the substrate sequence is highly specific for granzyme B compared to the other proteases tested	–	–	–
recombinant human granzyme B	the substrate sequence is highly specific for granzyme B compared to the other proteases tested	showed conversion within 30 minutes to one radiolabeled product	full length GRIP B was efficiently cleaved by recombinant human GZMB	˜8000 M^-1 sec^-1
thrombin	the substrate sequence is highly specific for granzyme B compared to the other proteases tested	–	–	–
